Assays:
[1] = molecular target: Endogenous high affinity simian LIF receptors on COS-7 cells (simian); experiment: Scatchard analysis of 125I-LIF binding to non-transfected COS-7 cells (curve E)
[2] = molecular target: Endogenous high affinity simian LIF receptors on COS-7 cells (simian); experiment: Scatchard analysis of 125I-LIF binding to COS-7 cells transfected with pHLIFR-65 and CAV, high affinity site (curve B, site 1)

Recombinant human leukemia inhibitory factor (LIF) (from UniProt P15018) (ligand)
Kd [1]: 30 pM
Kd [2]: 33 pM

Source: US5262522
